The record followed here is patent US20220396617A1.

Experiment [1] addresses human TIGIT (ECD)-his (human) (UniProt Q495A1). Description: ELISA, coated human TIGIT (ECD)-his (table head says FACS). (In an ELISA, binding on a coated surface is turned into a signal by an enzyme label.)
Experiment [2] shares this target. Description: SPR (BIAcore 8K), human TIGIT (ECD)-his on CM5 chip, antibody injected. Background: SPR reads the build-up and loss of mass on a sensor chip optically.
The target of experiment [3] is TIGIT (ECD)-hFc (human) (UniProt Q495A1). Description: FACS blocking assay: antibody preincubated with TIGIT (ECD)-hFc, binding to A549/human PVR cells.
Sequence of TIGIT (ECD)-hFc (human) (Q495A1 22-141): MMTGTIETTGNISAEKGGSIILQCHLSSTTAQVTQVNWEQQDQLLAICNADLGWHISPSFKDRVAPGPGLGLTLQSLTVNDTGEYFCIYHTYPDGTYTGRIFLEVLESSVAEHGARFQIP
Experiment [4] shares this target. Description: FACS blocking assay (protocol of Example 7): serially diluted antibody pre-incubated with TIGIT (ECD)-hFc, then binding of TIGIT (ECD)-hFc to A549/human PVR cells measured; blocked ligand: human PVR.
Experiment [5] shares this target. The experiment in a line: FACS blocking assay (protocol of Example 7): serially diluted antibody pre-incubated with TIGIT (ECD)-hFc, then binding of TIGIT (ECD)-hFc to A549/human PVR cells measured; blocked ligand: human PVR [A].
The target is the same in experiment [6]. Description: FACS blocking assay (protocol of Example 7): serially diluted antibody pre-incubated with TIGIT (ECD)-hFc, then binding of TIGIT (ECD)-hFc to A549/human PVR cells measured; blocked ligand: human PVR [B].

Sequence of human TIGIT (ECD)-his (human) (Q495A1 22-141): as above

As to Tiragolumab (antibody), the EC50 in experiment [1] is 0.16 nM; in experiment [3], 42 nM. In experiment [2], this substance showed a Kd of 0.00149 nM. Besides, the IC50 (read off the curve) in experiment [4] turned out to be 3 µg/mL; in experiment [5], 4 µg/mL; in experiment [6] it was 5 µg/mL.

The term EC50 denotes the concentration giving half of the maximal effect. The low end stands for a more potent agent, the high end for a less potent agent. The Kd is the equilibrium constant for the complex coming apart. A high value points to lower affinity.
